Target: the molecule itself
Assay: cryo-EM structure

B1: Dark protein, full-length (residues 1–1440) (natural protein, D. melanogaster, UniProt Q7KLI1 1-1440, looked up)
chain: MDFETGEHQYQYKDILSVFEDAFVDNFDCKDVQDMPKSILSKEEIDHIIMSKDAVSGTLRLFWTLLSKQEEMVQKFVEEVLRINYKFLMSPIKTEQRQPSMMTRMYIEQRDRLYNDNQVFAKYNVSRLQPYLKLRQALLELRPAKNVLIDGVLGSGKTWVALDVCLSYKVQCKMDFKIFWLNLKNCNSPETVLEMLQKLLYQIDPNWTSRSDHSSNIKLRIHSIQAELRRLLKSKPYENCLLVLLNVQNAKAWNAFNLSCKILLTTRFKQVTDFLSAATTTHISLDHHSMTLTPDEVKSLLLKYLDCRPQDLPREVLTTNPRRLSIIAESIRDGLATWDNWKHVNCDKLTTIIESSLNVLEPAEYRKMFDRLSVFPPSAHIPTILLSLIWFDVIKSDVMVVVNKLHKYSLVEKQPKESTISIPSIYLELKVKLENEYALHRSIVDHYNIPKTFDSDDLIPPYLDQYFYSHIGHHLKNIEHPERMTLFRMVFLDFRFLEQKIRHDSTAWNASGSILNTLQQLKFYKPYICDNDPKYERLVNAILDFLPKIEENLICSKYTDLLRIALMAEDEAIFEEAHKQVQRFDDRVWFTNHGRFHQHRQIINLGDNEGRHAVYLHNDFCLIALASGQILLTDVSLEGEDTYLLRDESDSSDILRMAVFNQQKHLITLHCNGSVKLWSLWPDCPGRRHSGGSKQQLVNSVVKRFIGSYANLKIVAFYLNEDAGLPEANIQLHVAFINGDVSILNWDEQDQEFKLSHVPVLKTMQSGIRCFVQVLKRYYVVCTSNCTLTVWDLTNGSSNTLELHVFNVENDTPLALDVFDERSKTATVLLIFKYSVWRLNFLPGLSVSLQSEAVQLPEGSFITCGKRSTDGRYLLLGTSEGLIVYDLKISDPVLRSNVSEHIECVDIYELFDPVYKYIVLCGAKGKQVVHVHTLRSVSGSNSHQNREIAWVHSADEISVMTKACLEPNVYLRSLMDMTRERTQLLAVDSKERIHLIKPAISRISEWSTITPTHAASNCKINAISAFNDEQIFVGYVDGVIIDVIHDTALPQQFIEEPIDYLKQVSPNILVASAHSAQKTVIFQLEKIDPLQPNDQWPLMMDVSTKYASLQEGQYIILFSDHGVCHLDIANPSAFVKPKDSEEYIVGFDLKNSLLFLAYENNIIDVFRLIFSCNQLRYEQICEEEIAQKAKISYLVATDDGTMLAMGFENGTLELFAVENRKVQLIYSIEEVHEHCIRQLLFSPCKLLLISCAEQLCFWNVTHMRNNQLEREQKRRRSRRHKQHSVTQEDAVDAAPIAADIDVDVTFVADEFHPVNRGTAELWRNKRGNAIRPELLACVKFVGNEARQFFTDAHFSHFYAIDDEGVYYHLQLLELSRLQPPPDPVTLDIANQYEDLKNLRILDSPLMQDSDSEGADVVGNLVLEKNGGVARATPILEEASS
- stoichiometry N: 16
